Reference: patent publication US20210292762, “ICAM-1 APTAMERS, DIAGNOSTIC AND THERAPEUTIC USES THEREOF” (BRACCO IMAGING S.P.A., published 2021)

What was measured:
[1] = biological target: ICAM-1 (endogenous, TNFalpha-induced) (UniProt P05362 P05362:28-532); experiment: flow; TNFalpha-stimulated HMEC-1 cells, 37 C 30 min, yeast tRNA 200 ug/mL pre-treatment, n=3; conditions: tags: HMEC-1 cells stimulated with TNFalpha 48 h; label: 5'-Alexa Fluor 488
Procedure: HMEC-1 cells were stimulated with TNFalpha for 48h to induce ICAM-1 expression.

[2] = biological target: T1, ICAM-1 (Homo sapiens, UniProt P05362 P05362:28-532); experiment: flow; COS7-ICAM-1 cells, 37 C 30 min, yeast tRNA 200 ug/mL pre-treatment, n=6; conditions: tags: full-length human ICAM-1 cDNA (pCMV6-ICAM-1) transiently expressed in COS7 cells; label: 5'-Alexa Fluor 488
T1 sequence (P05362 28-532, one chain of several): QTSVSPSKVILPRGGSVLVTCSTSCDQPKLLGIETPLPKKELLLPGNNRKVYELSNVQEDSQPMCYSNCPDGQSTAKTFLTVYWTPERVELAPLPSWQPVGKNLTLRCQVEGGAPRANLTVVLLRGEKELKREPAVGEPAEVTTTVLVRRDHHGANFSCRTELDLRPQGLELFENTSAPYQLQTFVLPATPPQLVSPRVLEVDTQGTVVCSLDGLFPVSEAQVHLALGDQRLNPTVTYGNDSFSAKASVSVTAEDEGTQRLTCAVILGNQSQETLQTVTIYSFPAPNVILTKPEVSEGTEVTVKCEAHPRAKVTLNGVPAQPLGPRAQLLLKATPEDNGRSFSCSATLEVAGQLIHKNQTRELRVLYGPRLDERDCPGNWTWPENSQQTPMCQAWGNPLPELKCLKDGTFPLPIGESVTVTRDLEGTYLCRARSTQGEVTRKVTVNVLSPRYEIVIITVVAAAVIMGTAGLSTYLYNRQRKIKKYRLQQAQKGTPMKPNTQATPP

[3] = biological target: T1, ICAM-1; experiment: RT-qPCR cell binding, 50 nM RNA, 37 C 15 min; conditions: tags: full-length human ICAM-1 cDNA (pCMV6-ICAM-1) transiently expressed in COS7 cells
Procedure: To the aim of testing if the short aptamer 10.T (SEQ ID NO: 1) contained the active site of the original molecule 12c-10 (SEQ ID NO: 2) and preserved high binding and affinity to COS7-ICAM-1, binding assays were performed maintaining the same conditions used for long aptamers screening.
The RNA sequence 10.T was incubated at 50 nM, as final concentration, for 15 minutes at 37° C. on COS7-WT and COS7-ICAM-1. The ratio comparing binding values of COS7-ICAM-1 over COS7-WT (fold change) is reported in FIG. 5, showing a value of 2.2.

[4] = biological target: T1, ICAM-1; experiment: RT-qPCR cell binding on COS7-ICAM-1, 37 C 15 min, yeast tRNA 200 ug/mL pre-treatment; conditions: tags: full-length human ICAM-1 cDNA (pCMV6-ICAM-1) transiently expressed in COS7 cells
Procedure: The same experiment was carried out with the unrelated aptamer A10, as negative control (sequence disclosed in Lupold S. E. et al., Cancer Res. 2002, 62, 4029-4033). The binding was evaluated by RT-qPCR.

[5] = biological target: T1, ICAM-1; experiment: RT-qPCR cell binding, 50 nM RNA, 37 C 15 min, yeast tRNA pre-treatment; conditions: tags: full-length human ICAM-1 cDNA (pCMV6-ICAM-1) transiently expressed in COS7 cells
Procedure: Following the analysis of the enriched sequences, binding assays by RT-qPCR were performed in order to select the sequences able to bind COS7-ICAM-1. Essentially, DNA sequences were amplified and transcribed. Then, RNA sequences were incubated at 50 nM, as final concentration, for 15 minutes at 37° C., after pre-treatment with yeast tRNA 200 μg/mL, on COS7-WT and COS7-ICAM-1. Following incubation, cells were washed 3 times with PBS and recovered in TRIsure reagent. An RNA sequence used as reference control was spotted in each point for the normalization. A fold ratio was calculated comparing binding values of COS7-ICAM-1 over COS7-WT. Twelve sequences representatives of couples or groups of identical sequences were screened. Those with higher fold ratio were chosen for further analysis performing experimental triplicates.

Chain of ICAM-1 (endogenous, TNFalpha-induced) (P05362 28-532, one chain of several): as above

B1: Alexa488-10.T (ssRNA)
RNA: UCAUGAUACGUUGCGUGAGCAACUGCGGCGCUAAAGUUUGGUUGACUAGUACAUG
modifications: 2'-F pyrimidines; 5'-C12 amino linker
Kd [1]: 106 nM | Kd [2]: 116 nM

B2: 10.T (ssRNA)
RNA: B1 RNA
modifications: 2'-F pyrimidines
binding signal [3]: 2.2 fold COS7-ICAM-1 over COS7-WT | Kd [4]: 376 nM

B3: 12c-10 (ssRNA)
RNA: GGGAAGAGAAGGACAUAUGAUCAUGAUACGUUGCGUGAGCAACUGCGGCGCUAAAGUUUGGUUGACUAGUACAUGACCACUUGA
modifications: 2'-F pyrimidines
binding signal [5]: 3.13 fold COS7-ICAM-1 over COS7-WT
